Source: patent publication US20090081195A1, “Inhibitors of Ste20-like Kinase (SLK) and Methods of Modulating Cell Cycle Progression and Cell Motility” (OTTAWA HEALTH RESEARCH INSTITUTE, priority 2005, published 2009)

B1: Ldb2: LIM domain binding transcription co-factor, paralog of Ldb1; recombinant His-tagged or in vitro translated protein (protein)
chain: MSSTPHDPFYSSPFGPFYRRHTPYMVQPEYRIYEMNKRLQSRTEDSDNLWWDAFATEFFEDDATLTLSFCLEDGPKRYTIGRTLIPRYFSTVFEGGVTDLYYILKHSKESYHNSSITVDCDQCAMVTQHGKPMFTKVCTEGRLILEFTFDDLMRIKTWHFTIRQYRELVPRSILAMHAQDPQVLDQLSKNITRMGLTNFTLNYLRLCVILEPMQELMSRHKTYNLSPRDCLKTCLFQKWQRMVAPPAEPTRQPTTKRRKRKNSTSSTSNSSAGNTTNSAGSKKKTPAASLSLATQVPDVMVVGEPTLMGGEFGDEDERLITRLENTQYDAANGMDDEEDFNNSPALGNNSPWNSKPPATQETKSENAPPQASQ
modifications: left off: large carriers
notes: recombinant His-tagged or in vitro translated protein
B2: Ldb1: LIM domain binding transcription co-factor; recombinant His-tagged or in vitro translated protein, SLK binding partner (protein)
chain: MLDRDVGPTPMYPPTYLEPGIGRHTPYGNQTDYRIFELNKRLQNWTEECDNLWWDAFTTEFFEDDAMLTITFCLEDGPKRYTIGRTLIPRYFRSIFEGGATELYYVLKHPKEAFHSNFVSLDCDQGSMVTQHGKPMFTQVCVEGRLYLEFMFDDMMRIKTWHFSIRQHRELIPRSILAMHAQDPQMLDQLSKNITRCGLSNSTLNYLRLCVILEPMQELMSRHKTYSLSPRDCLKTCLFQKWQRMVAPPAEPARQQPSKRRKRKMSGGSTMSSGGGNTNNSNSKKKSPASTFALSSQVPDVMVVGEPTLMGGEFGDEDERLITRLENTQFDAANGIDDEDSFNNSPALGANSPWNSKPPSSQESKSENPTSQASQ
modifications: left off: large carriers

What was measured:
[1] = target: T1, GST-tagged recombinant SLK (Mus musculus, UniProt O54988); assay: Recombinant SLK kinase assay on histone H1; assay type: biochemical, murine; details: recombinant His-tagged Ldb added to GST-SLK, substrate histone H1
T1 construct: GST (N); made in house; host or cells: bacteria (IPTG-induced, pGEX vector)
Excerpt: (a-left panel) MEFs obtained from floxed-Ldb1 mice were generated and infected with recombinant adenovirus harbouring a GFP or Cre recombinase cDNA. […] (right panel) SLK was immunoprecipitated from lysates obtained from Ad-GFP or Ad-Cre infected cells. SLK precipitation efficiency and kinase activity was consistently greater in lysates from Cre-infected cells. In addition, Ldb2 association with the SLK complex was lost in cells lacking Ldb1 (bottom panel). (b) Ldb2 interacts with SLK kinase domain and ATH. […] (c) Ldb1/2 inhibit SLK kinase activity in vitro. Recombinant GST-tagged SLK was prepared and mixed with recombinant His-tagged Ldb2 (lane 2), His-tagged Ldb1 (lane 3) or both (lane 4) and assayed for kinase activity on histone H1. Addition of recombinant Ldb proteins inhibited SLK activity (d) Activation of SLK by scratch wounding is accompanied by a conformational change. Endogenous SLK complexes were immunoprecipitated from unscratched MEFs or 60 min post-wounding and subjected to trypsin digestion. Differential trypsin sensitivity was observed indicative of altered conformation.
Recombinant SLK was prepared by inducing an overnight culture of GST-SLK with IPTG and preparing GST SLK as described above. […]

SLK [2] = target: T2, SLK (Mus musculus, UniProt O54988); assay: In vitro binding assay, GST-SLK fusions with [35S]-labeled Ldb; parameters: species or system murine; details: carboxy-terminal deletion lacking the latter two thirds of the ATH domain
T2 construct: made in house; host or cells: bacteria (IPTG-induced; pGEX-5X or 4T1)
Protocol: (§1) GST fusion proteins were generated by induction of bacterial cultures with 1 mM isopropyl-beta-D-thiogalactopyranoside (IPTG, Sigma) for 2 hours. Bacteria were pelleted, resuspended in 1 ml bacterial lysis buffer (20% sucrose, 10% glycerol, 50 mM Tris-HCl pH 8.0, 2 mM MgCl2, 2 mM DTT, 10 μg/ml leupeptin, 10 μg/ml pepstatin, 10 μg/ml aprotinin, 1 mM phenylmethylsulphonylfluoride [PMSF] and 100 μM benzamidine) and sonicated on ice.
(§2) Glutathione sepharose beads (Amersham Pharmacia) were added to the cleared supernatants and bound GST fusions were collected by centrifugation, washed three times with NETN and subjected to binding assays. In vitro translated proteins were generated using the TNT quick coupled in vitro transcription translation kit (Promega) according to the manufacturer's instructions. Translated proteins were incubated with either GST or GST fusions in NETN buffer, washed with NETN and eluted from the beads by boiling in sample buffer. Proteins were fractionated by SDS-PAGE, the gels were stained with Coomassie brilliant blue (Sigma) to visualize the proteins, destained (30% methanol, 10% acetic acid), dried and subjected to autoradiography.
T2 sequence (O54988 1-950 isoform O54988-2): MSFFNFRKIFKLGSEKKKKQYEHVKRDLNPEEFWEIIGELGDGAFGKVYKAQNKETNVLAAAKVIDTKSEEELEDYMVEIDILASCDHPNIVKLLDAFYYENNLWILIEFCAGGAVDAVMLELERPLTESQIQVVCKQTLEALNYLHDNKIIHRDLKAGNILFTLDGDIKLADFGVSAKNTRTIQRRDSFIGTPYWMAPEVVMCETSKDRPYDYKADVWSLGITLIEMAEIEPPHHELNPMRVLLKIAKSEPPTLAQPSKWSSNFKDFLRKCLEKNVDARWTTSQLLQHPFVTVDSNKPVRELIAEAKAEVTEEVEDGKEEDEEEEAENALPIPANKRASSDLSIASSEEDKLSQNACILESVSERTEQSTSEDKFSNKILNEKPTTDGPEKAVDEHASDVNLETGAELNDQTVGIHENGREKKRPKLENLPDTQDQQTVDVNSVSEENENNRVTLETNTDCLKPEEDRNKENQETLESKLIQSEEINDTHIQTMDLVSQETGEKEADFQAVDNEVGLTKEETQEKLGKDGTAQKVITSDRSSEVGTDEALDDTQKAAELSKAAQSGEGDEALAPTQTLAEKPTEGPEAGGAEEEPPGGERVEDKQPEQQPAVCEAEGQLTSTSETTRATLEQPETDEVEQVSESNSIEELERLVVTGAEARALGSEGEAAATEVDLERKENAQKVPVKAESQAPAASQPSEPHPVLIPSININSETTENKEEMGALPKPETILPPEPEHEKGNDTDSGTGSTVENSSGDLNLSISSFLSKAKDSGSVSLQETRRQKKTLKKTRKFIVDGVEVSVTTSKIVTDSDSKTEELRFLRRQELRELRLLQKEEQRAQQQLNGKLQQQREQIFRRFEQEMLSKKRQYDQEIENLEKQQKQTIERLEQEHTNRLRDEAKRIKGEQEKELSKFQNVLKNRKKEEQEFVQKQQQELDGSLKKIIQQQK

SLK [3] = target: T3, SLK (Mus musculus, UniProt O54988); assay: as above; parameters: species or system murine; details: GST pulldown, autoradiography
T3 construct: made in house; host or cells: bacteria (IPTG-induced; pGEX-5X or 4T1)
T3 sequence (O54988 981-1233): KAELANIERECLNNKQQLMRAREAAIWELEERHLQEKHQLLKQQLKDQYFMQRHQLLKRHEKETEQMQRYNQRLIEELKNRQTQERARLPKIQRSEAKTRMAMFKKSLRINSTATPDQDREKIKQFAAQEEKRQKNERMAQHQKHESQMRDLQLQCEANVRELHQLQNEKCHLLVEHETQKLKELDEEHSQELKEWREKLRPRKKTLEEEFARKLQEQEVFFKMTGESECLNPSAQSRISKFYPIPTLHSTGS
Protocol: as §1, §2

SLK [4] = assay: as above; parameters: species or system murine; details: deletions lacking the ATH domain, prolonged exposures
Protocol: as §1, §2

α-tubulin = assay: GST pulldown binding to α-tubulin; details: in vitro
Excerpt: Co-localization of Rac1 (d), Paxillin (e) and Ldb1 (f) with SLK (a-c) in membrane ruffles of migrating fibroblasts on fibronectin (arrowhead). Note the absence of SLK in mature adhesions identified by Paxillin staining (e; arrow). […] (m) Ldb2 binds α-tubulin.

T1 sequence (O54988 1-1202 isoform O54988-2): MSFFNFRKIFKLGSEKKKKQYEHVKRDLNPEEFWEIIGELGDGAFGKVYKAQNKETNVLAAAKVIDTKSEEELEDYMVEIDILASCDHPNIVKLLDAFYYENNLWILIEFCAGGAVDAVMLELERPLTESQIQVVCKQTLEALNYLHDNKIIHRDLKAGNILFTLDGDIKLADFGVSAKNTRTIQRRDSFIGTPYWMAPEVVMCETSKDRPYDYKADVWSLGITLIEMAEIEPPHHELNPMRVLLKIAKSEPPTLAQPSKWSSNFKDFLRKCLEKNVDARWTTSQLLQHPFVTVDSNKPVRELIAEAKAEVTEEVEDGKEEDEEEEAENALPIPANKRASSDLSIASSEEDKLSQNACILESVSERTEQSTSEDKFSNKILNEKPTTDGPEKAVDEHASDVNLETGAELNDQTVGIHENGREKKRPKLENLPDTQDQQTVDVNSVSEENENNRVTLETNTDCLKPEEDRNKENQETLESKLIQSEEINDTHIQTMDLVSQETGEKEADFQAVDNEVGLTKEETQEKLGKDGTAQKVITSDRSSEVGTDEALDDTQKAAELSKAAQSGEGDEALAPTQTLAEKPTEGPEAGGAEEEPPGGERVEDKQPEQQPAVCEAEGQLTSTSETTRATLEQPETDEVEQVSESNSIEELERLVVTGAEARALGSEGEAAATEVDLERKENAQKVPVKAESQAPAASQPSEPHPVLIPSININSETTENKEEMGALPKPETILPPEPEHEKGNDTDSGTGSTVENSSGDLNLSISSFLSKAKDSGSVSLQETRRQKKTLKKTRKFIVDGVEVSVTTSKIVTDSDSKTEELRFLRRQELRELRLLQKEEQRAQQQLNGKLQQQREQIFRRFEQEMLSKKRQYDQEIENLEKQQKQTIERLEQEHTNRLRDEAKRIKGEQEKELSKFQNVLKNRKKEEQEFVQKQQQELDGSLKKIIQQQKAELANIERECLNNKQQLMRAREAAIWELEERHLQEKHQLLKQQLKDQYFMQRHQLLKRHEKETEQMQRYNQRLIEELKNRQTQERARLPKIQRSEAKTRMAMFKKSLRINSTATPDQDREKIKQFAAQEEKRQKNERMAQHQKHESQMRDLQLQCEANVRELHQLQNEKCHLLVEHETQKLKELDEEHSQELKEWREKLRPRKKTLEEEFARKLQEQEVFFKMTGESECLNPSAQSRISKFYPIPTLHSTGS

| Molecule | SLK kinase activity [1] | binding to SLK 1-950 (SLK [2]) | binding to SLK ATH domain (SLK 950-1202) (SLK [3]) | binding to GST-SLK-1-551, GST-SLK-1-373 (SLK [4]) | binding to α-tubulin (α-tubulin) |
| --- | --- | --- | --- | --- | --- |
| B1 | reduced SLK activity | moderate affinity | highest affinity | weak binding | found to bind α-tubulin in vitro |
| B2 | reduced SLK activity |  | indistinguishable from Ldb2 |  | not |
